The assay concerns the target stomach proteases of BALB/c mice. As to the kind of experiment: cell-based or functional assay.

This note sets out measurements from patent US20120258145A1.

On to “non-lipidated Omp19S polypeptide of Brucella abortus, recombinant from E. coli, with a histidine tai (from UniProt P0A3P1 22-177)”, for which the inhibitory effect on the action of stomach proteases was > 30%.
